According to patent US11504441B2, “Radiolabeled compounds targeting the prostate-specific membrane antigen” (PROVINCIAL HEALTH SERVICES AUTHORITY, priority 2019, dated 2022):

Assay: in vivo
Parameters: species or system mice
Conditions: male, NODSCID 1L2RγKO, mouse, iv, total radioactivity

With `COc1ccc(CCCC(=O)NCC(=O)N[C@@H](CCCCNC(=O)CN2CCN(CC(=O)O)CCN(CC(=O)O)CCN(CC(=O)O)CC2)C(=O)NC[C@H]2CC[C@H](C(=O)N[C@@H](Cc3c4ccccc4cc4ccccc34)C(=O)NCCCC[C@H](NC(=O)N[C@@H](COCC(=O)O)C(=O)O)C(=O)O)CC2)cc1` [177Lu-HTK04028, metal not drawn] the tissue uptake at 1 h (Adrenal glands uptake) was 3.25 ± 0.34 %ID/g, the tissue uptake at 4 h (Adrenal glands uptake) was 2.18 ± 0.33 %ID/g and the tissue uptake at 24 h (Adrenal glands uptake) was 0.73 ± 0.13 %ID/g. It also gave a tissue uptake at 72 h (Adrenal glands uptake) of 0.48 ± 0.17 %ID/g, a tissue uptake at 120 h (Adrenal glands uptake) of 0.33 ± 0.05 %ID/g and a tissue uptake at 1 h (Blood uptake) of 17.7 ± 2.1 %ID/g. It also gave a tissue uptake at 4 h (Blood uptake) of 12.2 ± 1.66 %ID/g, a tissue uptake at 24 h (Blood uptake) of 0.82 ± 0.11 %ID/g and a tissue uptake at 72 h (Blood uptake) of 0.05 ± 0.01 %ID/g. The tissue uptake at 120 h (Blood uptake) was 0.02 %ID/g, the tissue uptake at 1 h (Bone uptake) was 0.99 ± 0.21 %ID/g and the tissue uptake at 4 h (Bone uptake) was 0.63 ± 0.1 %ID/g. For the same compound, the tissue uptake at 24 h (Bone uptake) was 0.11 ± 0.02 %ID/g, the tissue uptake at 72 h (Bone uptake) was 0.05 ± 0.02 %ID/g and the tissue uptake at 120 h (Bone uptake) was 0.04 ± 0.02 %ID/g. For the same compound, the tissue uptake at 1 h (Brain uptake) was 0.26 ± 0.03 %ID/g, the tissue uptake at 4 h (Brain uptake) was 0.19 ± 0.02 %ID/g and the tissue uptake at 24 h (Brain uptake) was 0.02 %ID/g. It also gave a tissue uptake at 72 h (Brain uptake) of 0.01 %ID/g, a tissue uptake at 1 h (Fat uptake) of 1.26 ± 0.21 %ID/g and a tissue uptake at 4 h (Fat uptake) of 0.89 ± 0.24 %ID/g. It also gave a tissue uptake at 24 h (Fat uptake) of 0.14 ± 0.02 %ID/g, a tissue uptake at 72 h (Fat uptake) of 0.06 ± 0.02 %ID/g and a tissue uptake at 120 h (Fat uptake) of 0.03 ± 0.01 %ID/g. The tissue uptake at 1 h (Heart uptake) was 4.15 ± 0.31 %ID/g, the tissue uptake at 4 h (Heart uptake) was 2.67 ± 0.31 %ID/g and the tissue uptake at 24 h (Heart uptake) was 0.36 ± 0.03 %ID/g. For the same compound, the tissue uptake at 72 h (Heart uptake) was 0.12 ± 0.03 %ID/g, the tissue uptake at 120 h (Heart uptake) was 0.07 ± 0.01 %ID/g and the tissue uptake at 1 h (Intestine uptake) was 1.23 ± 0.24 %ID/g. For the same compound, the tissue uptake at 4 h (Intestine uptake) was 1.04 ± 0.12 %ID/g, the tissue uptake at 24 h (Intestine uptake) was 0.23 ± 0.05 %ID/g and the tissue uptake at 72 h (Intestine uptake) was 0.07 ± 0.03 %ID/g. The tissue uptake at 120 h (Intestine uptake) was 0.08 ± 0.05 %ID/g, the tissue uptake at 1 h (Kidneys uptake) was 8.3 ± 1.58 %ID/g and the tissue uptake at 4 h (Kidneys uptake) was 9.21 ± 2.76 %ID/g. For the same compound, the tissue uptake at 24 h (Kidneys uptake) was 4.32 ± 0.58 %ID/g, the tissue uptake at 72 h (Kidneys uptake) was 1.77 ± 0.25 %ID/g and the tissue uptake at 120 h (Kidneys uptake) was 1.16 ± 0.13 %ID/g. For the same compound, the tissue uptake at 1 h (Lacrimal uptake) was 0.51 ± 0.23 %ID/g, the tissue uptake at 4 h (Lacrimal uptake) was 0.39 ± 0.19 %ID/g and the tissue uptake at 24 h (Lacrimal uptake) was 0.05 ± 0.04 %ID/g. It also gave a tissue uptake at 72 h (Lacrimal uptake) of 0.01 ± 0.01 %ID/g, a tissue uptake at 1 h (Liver uptake) of 2.93 ± 0.51 %ID/g and a tissue uptake at 4 h (Liver uptake) of 2.29 ± 0.55 %ID/g. It also gave a tissue uptake at 24 h (Liver uptake) of 0.54 ± 0.09 %ID/g, a tissue uptake at 72 h (Liver uptake) of 0.22 ± 0.02 %ID/g and a tissue uptake at 120 h (Liver uptake) of 0.31 ± 0.3 %ID/g. For the same compound, the tissue uptake at 1 h (Lungs uptake) was 7.88 ± 1.77 %ID/g, the tissue uptake at 4 h (Lungs uptake) was 5.79 ± 0.44 %ID/g and the tissue uptake at 24 h (Lungs uptake) was 1.08 ± 0.72 %ID/g. The tissue uptake at 72 h (Lungs uptake) was 0.18 ± 0.02 %ID/g, the tissue uptake at 120 h (Lungs uptake) was 0.09 ± 0.01 %ID/g and the tissue uptake at 1 h (Muscle uptake) was 1.32 ± 0.19 %ID/g. The tissue uptake at 4 h (Muscle uptake) was 0.83 ± 0.09 %ID/g, the tissue uptake at 24 h (Muscle uptake) was 0.11 ± 0.02 %ID/g and the tissue uptake at 72 h (Muscle uptake) was 0.03 ± 0.01 %ID/g. It also gave a tissue uptake at 120 h (Muscle uptake) of 0.02 %ID/g, a tissue uptake at 1 h (Pancreas uptake) of 1.53 ± 0.22 %ID/g and a tissue uptake at 4 h (Pancreas uptake) of 1.24 ± 0.04 %ID/g. For the same compound, the tissue uptake at 24 h (Pancreas uptake) was 0.15 ± 0.02 %ID/g, the tissue uptake at 72 h (Pancreas uptake) was 0.05 ± 0.01 %ID/g and the tissue uptake at 120 h (Pancreas uptake) was 0.03 %ID/g. The tissue uptake at 1 h (Salivary uptake) was 2.55 ± 0.21 %ID/g, the tissue uptake at 4 h (Salivary uptake) was 1.75 ± 0.25 %ID/g and the tissue uptake at 24 h (Salivary uptake) was 0.45 ± 0.1 %ID/g. For the same compound, the tissue uptake at 72 h (Salivary uptake) was 0.19 ± 0.05 %ID/g, the tissue uptake at 120 h (Salivary uptake) was 0.11 ± 0.03 %ID/g and the tissue uptake at 1 h (Seminal uptake) was 1.53 ± 0.97 %ID/g. It also gave a tissue uptake at 4 h (Seminal uptake) of 0.9 ± 0.2 %ID/g, a tissue uptake at 24 h (Seminal uptake) of 0.12 ± 0.02 %ID/g and a tissue uptake at 72 h (Seminal uptake) of 0.05 ± 0.01 %ID/g. The tissue uptake at 120 h (Seminal uptake) was 0.05 ± 0.03 %ID/g, the tissue uptake at 1 h (Spleen uptake) was 1.53 ± 0.23 %ID/g and the tissue uptake at 4 h (Spleen uptake) was 1.44 ± 0.31 %ID/g. It also gave a tissue uptake at 24 h (Spleen uptake) of 0.48 ± 0.14 %ID/g, a tissue uptake at 72 h (Spleen uptake) of 0.49 ± 0.16 %ID/g and a tissue uptake at 120 h (Spleen uptake) of 0.69 ± 0.36 %ID/g. The tissue uptake at 1 h (Stomach uptake) was 0.51 ± 0.18 %ID/g, the tissue uptake at 4 h (Stomach uptake) was 0.45 ± 0.06 %ID/g and the tissue uptake at 24 h (Stomach uptake) was 0.31 ± 0.1 %ID/g. It also gave a tissue uptake at 72 h (Stomach uptake) of 0.07 ± 0.07 %ID/g, a tissue uptake at 120 h (Stomach uptake) of 0.1 ± 0.1 %ID/g and a tissue uptake at 1 h (Tail uptake) of 4.85 ± 1.59 %ID/g. The tissue uptake at 4 h (Tail uptake) was 2.21 ± 0.18 %ID/g, the tissue uptake at 24 h (Tail uptake) was 0.31 ± 0.1 %ID/g and the tissue uptake at 72 h (Tail uptake) was 0.15 ± 0.04 %ID/g. The tissue uptake at 120 h (Tail uptake) was 0.1 ± 0.03 %ID/g, the tissue uptake at 1 h (Testes uptake) was 2.26 ± 0.46 %ID/g and the tissue uptake at 4 h (Testes uptake) was 2.66 ± 0.41 %ID/g. It also gave a tissue uptake at 24 h (Testes uptake) of 0.55 ± 0.05 %ID/g, a tissue uptake at 72 h (Testes uptake) of 0.31 ± 0.05 %ID/g and a tissue uptake at 120 h (Testes uptake) of 0.22 ± 0.01 %ID/g. For the same compound, the tissue uptake at 1 h (Thyroid uptake) was 3.3 ± 0.42 %ID/g, the tissue uptake at 4 h (Thyroid uptake) was 2.3 ± 0.3 %ID/g and the tissue uptake at 24 h (Thyroid uptake) was 0.52 ± 0.08 %ID/g. It also gave a tissue uptake at 72 h (Thyroid uptake) of 0.24 ± 0.04 %ID/g, a tissue uptake at 120 h (Thyroid uptake) of 0.13 ± 0.02 %ID/g and a tissue uptake at 1 h (Tumor uptake) of 19 ± 5.86 %ID/g. It also gave a tissue uptake at 4 h (Tumor uptake) of 42.6 ± 11.6 %ID/g, a tissue uptake at 24 h (Tumor uptake) of 30.2 ± 2.74 %ID/g and a tissue uptake at 72 h (Tumor uptake) of 26.1 ± 7.29 %ID/g. It also gave a tissue uptake at 120 h (Tumor uptake) of 28.4 ± 5.11 %ID/g.
